Reference: patent publication US20070196354A1, “Method of treating diabetes by inhibiting degradation of at least one of crebl1, atf6, and hnf-4 alpha by htra” (priority 2003, published 2007)

What was measured:
casein = assay: Casein zymography and protease assay with casein sodium; format: biochemical; conditions: casein zymography and casein sodium protease assay, 37° C., E. coli-expressed His-tagged protein
Experimental: Determination of the activity of mature HtrA2 and mature HtrA2 (S306A) was carried out with casein zymography and with a protease assay with casein sodium. Casein zymography was carried out according to the protocol (Invitrogen). More concretely, mature HtrA2 and mature HtrA2 (S306A) were mixed under non-reductive condition with equivalent volume of 2×SDS sample buffer, left to stand at room temperature for 10 min, followed by separation with 4-16% zymogram (Blue casein) gel (Zymogram Gel, Invitrogen). After completion of electrophoresis, they were renatured with 2.5% Triton X-100, and then subjected to a degradation reaction of casein in the developing buffer at 37= C. for overnight.
Meanwhile, a protease assay using casein sodium as an substrate was carried out in such that mature HtrA2 or mature HtrA2 (S306A) was mixed with casein sodium in a reaction buffer (150 mM NaCl, 50 mM Tris-HCl (pH 7.5)) so as to the concentration of the former might become 200 μg/ml and the concentration of the latter might become 400 μg/ml, and incubated at 37° C. for reactions. A portion of the reaction solution was sampled at three hours and overnight after initiation of the reaction, mixed with equivalent volume of 2×SDS sample buffer followed by boiling, and then subjected to SDS-PAGE. After that, the degradation of casein sodium was detected by Coomassie Brilliant Blue (CBB) staining.
The enzyme activity of the various types of HtrA2 each of which was expressed in a cultured cell was determined by the protease assay using casein sodium as a substrate (see Example 2).

biotinylated CREBL1 = target: T1, biotinylated CREBL1 (Homo sapiens, UniProt Q99941); assay: In vitro protease assay using biotinylated CREBL1 (degradation pattern); format: biochemical; conditions: 37° C., 4 hours or overnight
T1 construct: made in house; host or cells: cell-free: rabbit reticulocyte lysate (TNT Transcription/Translation System, Promega); the unpurified reaction solution was used
T1 sequence (Q99941 1-703): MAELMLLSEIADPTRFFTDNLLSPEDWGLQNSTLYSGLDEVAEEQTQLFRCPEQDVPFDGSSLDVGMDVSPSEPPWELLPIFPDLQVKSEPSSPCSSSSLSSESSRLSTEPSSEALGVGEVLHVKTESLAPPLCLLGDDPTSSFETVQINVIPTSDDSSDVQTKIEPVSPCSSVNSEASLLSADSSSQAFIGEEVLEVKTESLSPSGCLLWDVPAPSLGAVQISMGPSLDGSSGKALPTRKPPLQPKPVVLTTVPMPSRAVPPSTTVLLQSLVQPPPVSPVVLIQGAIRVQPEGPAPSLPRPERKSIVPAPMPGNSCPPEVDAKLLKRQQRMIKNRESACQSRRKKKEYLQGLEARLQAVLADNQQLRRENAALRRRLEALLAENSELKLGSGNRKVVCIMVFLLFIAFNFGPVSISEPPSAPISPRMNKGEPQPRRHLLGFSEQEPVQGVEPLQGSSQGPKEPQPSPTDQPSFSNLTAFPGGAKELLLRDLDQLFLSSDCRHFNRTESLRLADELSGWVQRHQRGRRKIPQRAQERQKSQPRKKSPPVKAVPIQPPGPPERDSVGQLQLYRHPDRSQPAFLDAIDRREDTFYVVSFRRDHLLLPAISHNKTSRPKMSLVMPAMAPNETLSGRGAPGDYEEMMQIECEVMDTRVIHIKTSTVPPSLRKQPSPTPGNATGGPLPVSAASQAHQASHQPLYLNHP
Experimental: More concretely, first, 1.5 μl of the animal cell expression plasmid for CREBL1 (1 μg/μl), 1 μl of 1 mM methionine, 1 μl of biotinylated lysine tRNA (Promega), and 6.5 μl of nuclease free water were added to 40 μl of in vitro translation reaction solution (TNT® Quick Master Mix) to obtain total volume of 50 μl, and reacted for at 30° C. for 1.5 hours. Following this, 12.5 μl of 50 μl reaction solution was sampled, followed by adding with 2×SDS sample buffer and boiling, to detect the expression of biotinylated CREBL1 by western blotting. The detection was carried out using streptavidin HRP (Promega) and Transcend™ Chemiluminescent substrate (Transcend™ Non-Radioactive Translation detection system; Promega). As a result, biotinylation of CREBL1 was confirmed in sample.
The reaction solution was used as the sample for protease assay. 12.5 μl each of the reaction solution was dispensed to three tubes (Nos. 2 to 4). 25 μl of 50 mM Tris-HCl (pH 7.5), 150 mM NaCl, 0.01% Triton X-100 was added as the control to tube No. 2, 25 μl of 200 μg/m mature HtrA2 solution was added to tube No. 3, and 25 μl of 200 μg/ml mature HtrA2 (S306A) solution was added to tube No. 4, respectively, and mixed. […]

B1: mature HtrA2: SEQ ID NO: 4; mature protein generated from HtrA2 precursor by cleavage of N-terminal 133 residues, has protease activity (protein, listed as Homo sapiens)
chain: MAVPSPPPASPRSQYNFIADVVEKTAPAVVYIEILDRHPFLGREVPISNGSGFVVAADGLIVTNAHVVADRRRVRVRLLSGDTYEAVVTAVDPVADIATLRIQTKEPLPTLPLGRSADVRQGEFVVAMGSPFALQNTITSGIVSSAQRPARDLGLPQTNVEYIQTDAAIDFGNSGGPLVNLDGEVIGVNTMKVTAGISFAIPSDRLREFLHRGEKKNSSSGISGSQRRYIGVMMLTLSPSILAELQLREPSFPDVQHGVLIHKVILGSPAHRAGLRPGDVILAIGEQMVQNAEDVYEAVRTQSQLAVQIRRGRETLTLYVTPEVTE
modifications: mature HtrA2
casein
  degradation of casein: degradation of casein by mature HtrA2 was observed
Biotinylated CREBL1; anti-Tag antibody
  degradation of N-terminal tagged-CREBL1, detecting the Tag: The band of N-terminal tagged-CREBL1 was reduced significantly
Biotinylated CREBL1; streptavidin HRP
  degradation of biotinylated CREBL1, detecting the biotin: The band of biotinylated CREBL1 was reduced significantly
